± gives the uncertainty stated by the source.
Experiment: protein stability index of a GFP-peptide fusion (yeast GPS) (PSI 1-4); higher = more stable; sorted into four equal gates, so the index is relative within each strain
How it was run: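 Tiled 17-residue peptides from yeast proteins were fused downstream of GFP on a plasmid that also expresses Cherry, and the pooled library was carried in yeast. Mid-log cultures grown in leucine-free medium were sorted into four equal gates by GFP/Cherry fluorescence ratio. Plasmids from each gate were PCR-amplified and Illumina-sequenced, and reads were assigned to strains by barcodes. Each peptide's protein stability index is the sum, over gates, of the gate's read frequency multiplied by its gate number.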

## DKTAVKLDTEVKNTNAN [SWP82]
doa10∆
  protein stability index: 2.5 ± 0.077
pdr5∆
  protein stability index: 2.83 ± 0.076
san1∆
  protein stability index: 2.88 ± 0.099
ubr1∆
  protein stability index: 1.96 ± 0.056

## SEDDSESGKVFIGRLPI [RPB2]
doa10∆
  protein stability index: 3.36 ± 0.08
pdr5∆
  protein stability index: 3.19 ± 0.073
san1∆
  protein stability index: 3.31 ± 0.055
ubr1∆
  protein stability index: 3.29 ± 0.043

## LGRLNKLRKIAISKKNK [LIN1]
doa10∆
  protein stability index: 2 ± 0.083
pdr5∆
  protein stability index: 1.74 ± 0.096
san1∆
  protein stability index: 1.39 ± 0.23
ubr1∆
  protein stability index: 1.47 ± 0.072

## IYDFPGTPEATKGMITN [NUT2]
doa10∆
  protein stability index: 2.54 ± 0.11
pdr5∆
  protein stability index: 2.54 ± 0.11
san1∆
  protein stability index: 2.98 ± 0.15
ubr1∆
  protein stability index: 3.3 ± 0.086

## NGQSLSPVRSDSADVPA [YMR153W/NUP53]
doa10∆
  protein stability index: 3.06 ± 0.081
pdr5∆
  protein stability index: 3.15 ± 0.081
san1∆
  protein stability index: 3.09 ± 0.11
ubr1∆
  protein stability index: 2.91 ± 0.05

## ETTTQFKATHILDFGPG [FAS1]
doa10∆
  protein stability index: 2.44 ± 0.081
pdr5∆
  protein stability index: 2 ± 0.094
san1∆
  protein stability index: 2.16 ± 0.084
ubr1∆
  protein stability index: 2.25 ± 0.054

## LSDYEVLKFLTDLEKKH [RPC17]
doa10∆
  protein stability index: 3.38 ± 0.13
pdr5∆
  protein stability index: 3.23 ± 0.12
san1∆
  protein stability index: 3.08 ± 0.086
ubr1∆
  protein stability index: 3.11 ± 0.13

## NKIMTNQINSFWSLHSS [NUT1]
doa10∆
  protein stability index: 1.91 ± 0.2
pdr5∆
  protein stability index: 2.23 ± 0.15
san1∆
  protein stability index: 2.06 ± 0.11
ubr1∆
  protein stability index: 3.31 ± 0.1

## VASQTVKKVIEINPFLL [PRE2]
pdr5∆
  protein stability index: 3.07 ± 0.17
san1∆
  protein stability index: 2.44 ± 0.11

## NRHNLLNDVVSFLFSAI [SWI1]
doa10∆
  protein stability index: 2.19 ± 0.077
pdr5∆
  protein stability index: 2.58 ± 0.05
san1∆
  protein stability index: 2.4 ± 0.067
ubr1∆
  protein stability index: 2.4 ± 0.043

## EEVEDQINPTRETNDDI [SNF2]
doa10∆
  protein stability index: 2.25 ± 0.079
pdr5∆
  protein stability index: 1.74 ± 0.082
san1∆
  protein stability index: 1.45 ± 0.11
ubr1∆
  protein stability index: 1.58 ± 0.062

## LVLPPVVTSSVAESFTD [SNF2]
doa10∆
  protein stability index: 2.13 ± 0.047
pdr5∆
  protein stability index: 2.02 ± 0.057
san1∆
  protein stability index: 2.39 ± 0.084
ubr1∆
  protein stability index: 2.32 ± 0.053

## QLNKVVDQLFEKASVLY [RPN6]
doa10∆
  protein stability index: 2.55 ± 0.051
pdr5∆
  protein stability index: 2.06 ± 0.052
san1∆
  protein stability index: 2.62 ± 0.05
ubr1∆
  protein stability index: 2.43 ± 0.055

## LVPPPRTIANQDHFHRL [RPR2]
doa10∆
  protein stability index: 3.01 ± 0.086
pdr5∆
  protein stability index: 3.15 ± 0.069
san1∆
  protein stability index: 2.88 ± 0.051
ubr1∆
  protein stability index: 2.93 ± 0.066

## MTAQQAPKWYPSEDVAA [RPL6B]
doa10∆
  protein stability index: 1.77 ± 0.11
pdr5∆
  protein stability index: 1.7 ± 0.074
san1∆
  protein stability index: 1.84 ± 0.091
ubr1∆
  protein stability index: 1.71 ± 0.11

## NPDDDYGFKQEIFDVTS [FAS1]
doa10∆
  protein stability index: 3.38 ± 0.25
pdr5∆
  protein stability index: 3.45 ± 0.11
san1∆
  protein stability index: 3.17 ± 0.1
ubr1∆
  protein stability index: 3.31 ± 0.055

## NESKIKELNEKIQKLEE [RPN7]
doa10∆
  protein stability index: 2.95 ± 0.16
pdr5∆
  protein stability index: 2.48 ± 0.11
san1∆
  protein stability index: 2.26 ± 0.14
ubr1∆
  protein stability index: 2.09 ± 0.14

## PLKYTKLIAAAEDGSRS [SNF6]
doa10∆
  protein stability index: 1.3 ± 0.23
pdr5∆
  protein stability index: 1.49 ± 0.11
san1∆
  protein stability index: 1.19 ± 0.21
ubr1∆
  protein stability index: 1.57 ± 0.18

## NNTNTGASGVDDFQNFF [SWI1]
doa10∆
  protein stability index: 2.92 ± 0.068
pdr5∆
  protein stability index: 3.16 ± 0.065
san1∆
  protein stability index: 2.87 ± 0.069
ubr1∆
  protein stability index: 3.31 ± 0.045

## THFLLNIYDQLRNKLIE [RRP6]
doa10∆
  protein stability index: 2.62 ± 0.044
pdr5∆
  protein stability index: 2.69 ± 0.062
san1∆
  protein stability index: 2.38 ± 0.051
ubr1∆
  protein stability index: 2.8 ± 0.033

## SMIEKGGDWERRNRYKT [RPN7]
doa10∆
  protein stability index: 3.01 ± 0.14
pdr5∆
  protein stability index: 3.43 ± 0.22

## KEKIKNNRQLPYLVANV [RPT5]
doa10∆
  protein stability index: 2.78 ± 0.1
pdr5∆
  protein stability index: 3.1 ± 0.095
san1∆
  protein stability index: 3.11 ± 0.096
ubr1∆
  protein stability index: 2.64 ± 0.081

## FNRDNKVSPAAAAKKAL [RPS26B]
doa10∆
  protein stability index: 2.4 ± 0.12
pdr5∆
  protein stability index: 2.5 ± 0.21
san1∆
  protein stability index: 2.61 ± 0.11
ubr1∆
  protein stability index: 2.79 ± 0.12

## VEAGMIALRNGQSSVKH [RPT5]
doa10∆
  protein stability index: 2.87 ± 0.14
pdr5∆
  protein stability index: 2.9 ± 0.16
san1∆
  protein stability index: 2.79 ± 0.11
ubr1∆
  protein stability index: 2.6 ± 0.11

## FVIRREVTKGEKTYTKA [RPS6A]
doa10∆
  protein stability index: 3.24 ± 0.17
pdr5∆
  protein stability index: 3.13 ± 0.14
ubr1∆
  protein stability index: 3.53 ± 0.13

## SNGGGKVKPIRGFCQRL [RPO31]
doa10∆
  protein stability index: 2.94 ± 0.13
pdr5∆
  protein stability index: 3.12 ± 0.11
san1∆
  protein stability index: 3.09 ± 0.097
ubr1∆
  protein stability index: 3.25 ± 0.065

## FCGKKTVKRGAAGIWTC [RPL43A]
doa10∆
  protein stability index: 1.79 ± 0.072
pdr5∆
  protein stability index: 1.88 ± 0.071
san1∆
  protein stability index: 2.19 ± 0.11
ubr1∆
  protein stability index: 1.92 ± 0.059

## TTVITVFLEFSLNFIPI [YML103C/NUP188]
doa10∆
  protein stability index: 1.42 ± 0.038
pdr5∆
  protein stability index: 1.33 ± 0.032
san1∆
  protein stability index: 1.83 ± 0.064
ubr1∆
  protein stability index: 1.58 ± 0.023

## RSPVFALNMLPSEILHL [GRR1]
doa10∆
  protein stability index: 2.3 ± 0.049
pdr5∆
  protein stability index: 2.27 ± 0.042
san1∆
  protein stability index: 2.4 ± 0.053
ubr1∆
  protein stability index: 2.19 ± 0.028

## ELKYQRSLRATAEERVG [RPL15A]
doa10∆
  protein stability index: 1.27 ± 0.083
pdr5∆
  protein stability index: 1.48 ± 0.11
san1∆
  protein stability index: 1.67 ± 0.19
ubr1∆
  protein stability index: 1.09 ± 0.054

## MFLYILKHLEEMGKLRE [RRI2]
doa10∆
  protein stability index: 3.11 ± 0.11
pdr5∆
  protein stability index: 3.16 ± 0.11
san1∆
  protein stability index: 3.04 ± 0.078
ubr1∆
  protein stability index: 3.16 ± 0.051

## FSEVYEYNRLKVQDAIE [LIN1]
doa10∆
  protein stability index: 2.71 ± 0.059
pdr5∆
  protein stability index: 2.17 ± 0.055
san1∆
  protein stability index: 3.04 ± 0.076
ubr1∆
  protein stability index: 2.89 ± 0.086

## TNELWARLAILKERAKN [YGR119C/NUP57]
doa10∆
  protein stability index: 3.26 ± 0.13
pdr5∆
  protein stability index: 2.75 ± 0.2
ubr1∆
  protein stability index: 3.58 ± 0.13

## RANLRKYREGQVLFQGL [POP1]
doa10∆
  protein stability index: 2.83 ± 0.095
pdr5∆
  protein stability index: 2.31 ± 0.071
san1∆
  protein stability index: 2.02 ± 0.088
ubr1∆
  protein stability index: 2.96 ± 0.063

## LSERKAEKAEIRKRRAS [RPS6A]
doa10∆
  protein stability index: 3.44 ± 0.17
pdr5∆
  protein stability index: 3.06 ± 0.23
san1∆
  protein stability index: 3.24 ± 0.13
ubr1∆
  protein stability index: 3.36 ± 0.14

## TDKSNSPIGFTNSPQIS [SMC2]
doa10∆
  protein stability index: 3.02 ± 0.05
pdr5∆
  protein stability index: 3.16 ± 0.054
san1∆
  protein stability index: 3.03 ± 0.043
ubr1∆
  protein stability index: 3.03 ± 0.043

## SKCLNLISDSNINNSSV [SWI3]
doa10∆
  protein stability index: 1.94 ± 0.072
pdr5∆
  protein stability index: 1.91 ± 0.065
san1∆
  protein stability index: 1.6 ± 0.11
ubr1∆
  protein stability index: 2.41 ± 0.039

## NLPKDKSGIPEFTPADP [SSN2]
doa10∆
  protein stability index: 2.99 ± 0.091
pdr5∆
  protein stability index: 3.12 ± 0.075
san1∆
  protein stability index: 3.03 ± 0.076
ubr1∆
  protein stability index: 3.47 ± 0.056

## SLSRDFVMKTRRRKGIS [SNU114]
doa10∆
  protein stability index: 3.25 ± 0.2
pdr5∆
  protein stability index: 3.31 ± 0.11
san1∆
  protein stability index: 3.02 ± 0.074
ubr1∆
  protein stability index: 2.77 ± 0.22

## EIMQQKFPATNVTTILD [ECM29]
doa10∆
  protein stability index: 2.41 ± 0.061
pdr5∆
  protein stability index: 2.47 ± 0.055
san1∆
  protein stability index: 2.19 ± 0.063
ubr1∆
  protein stability index: 2.45 ± 0.057

From the supplement of paper PMC9732359
